The record followed here is the supplement of paper PMC7877785.

± gives the uncertainty stated by the source.

The data set can be described thus: self-splicing fitness, log relative to wild type (ln ratio); higher = more splicing; Tetrahymena group I intron in knt gene, E. coli kanamycin selection, DiMSum; sequences stand for … in CUCUCU…GGAGGGAAAAGUUAUCAGGCAUGCACCUGGUAGCUAGUCUUUAAACCAAUAGAUUGCAUCGGUUUAAAAGGCAAGACCGUCAAAUUGCGGGAAAGGGGUCAACAGCCGUUCAGUACCAAGUCUCAGGGGAAACUUUGAGAUGGCCUUGCAAAGGGUAUGGUAAUAAGCUGACGGACAUGGUCCUAACCACGCAGCCAAGUCCUAAGUCAACAGAUCUUCUGUUGAUAUGGAUGCAGUUCACAGACUAAAUGUCGGUCGGGGAAGAUGUAUUCUUCUCAUAAGAUAUAGUCGGACCUCUCCUUAAUGGGAGCUAGCGGAUGAAGUGAUGCAACACUGGAGCCGCUGGGAACUAAUUUGUAUGCGAAAGUAUAUUGAUUAGUUUUGGAGUACUCGUGGUCG
The essentials: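 Six replicate transformations of E. coli BL21(DE3) with a pET-22b(+) library were grown overnight at 37°C or 30°C. The library randomised all eight P1ex-region intron nucleotides, the intron lying in the knt kanamycin-resistance gene, and plates were LB agar with or without 25 μg/mL kanamycin plus 100 μg/mL carbenicillin, 50 μM IPTG and 0.2% rhamnose. Pooled colonies were amplicon-sequenced on an Illumina HiSeq 2500, and fitness is the DiMSum error-weighted combination of wild-type-normalised replicate fold changes, kanamycin versus none.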

With AGUUAGCAAUAUUACGGCGU, the “self-splicing fitness (ln)” value by setting is: (30 °C) -0.00974 ± 0.12; (37 °C) 0.274 ± 0.12.
In the case of AGUUAGCAAUAUUACGGGCG, the “self-splicing fitness (ln)” value (30 °C) is -0.303 ± 0.16 and the “self-splicing fitness (ln)” value (37 °C) is -0.0474 ± 0.17.
Turning to AGUUAGCAAUAUUACGUACU, the “self-splicing fitness (ln)” value is -1.16 ± 0.13 (30 °C) and -0.298 ± 0.12 (37 °C).
For AGUUAGCAAUAUUACGUCAU, the “self-splicing fitness (ln)” value is -2.48 ± 0.1 (30 °C) and -1.81 ± 0.13 (37 °C).
The like results for AGUUAGCAAUAUUACGUUAC were, in that order, -3.26 ± 0.3 and -2.69 ± 0.33.
Take AGUUAGCAAUAUUACGUUCC: the “self-splicing fitness (ln)” value was -0.837 ± 0.14 (30 °C) and -0.127 ± 0.18 (37 °C).
In the case of AGUUAGCAAUAUUACGUUGC, the “self-splicing fitness (ln)” value was -4.72 ± 0.41 (30 °C) and -2.21 ± 0.21 (37 °C).
For AGUUAGCAAUAUUACGUUGU, the “self-splicing fitness (ln)” value reads like this: (30 °C) -4.38 ± 0.37; (37 °C) -3.36 ± 0.37.
In the case of AGUUAGCAAUAUUACGUUUA, the “self-splicing fitness (ln)” value reads like this: (30 °C) -2.23 ± 0.21; (37 °C) -1.06 ± 0.21.
In the same order, the values of AUAAAGCAAUAUUACGAACC are -1.28 ± 0.18 and -0.77 ± 0.25.
Regarding AUAAAGCAAUAUUACGACCC, the “self-splicing fitness (ln)” value runs as follows: (30 °C) 0.352 ± 0.21; (37 °C) 0.804 ± 0.26.
For AUAAAGCAAUAUUACGACCU, the “self-splicing fitness (ln)” value is, setting by setting: (30 °C) -0.0242 ± 0.097; (37 °C) 0.381 ± 0.12.
As to AUAAAGCAAUAUUACGAGAA, the “self-splicing fitness (ln)” value was -2.7 ± 0.19 (30 °C) and -1.85 ± 0.23 (37 °C).
For AUAAAGCAAUAUUACGAGUA, the “self-splicing fitness (ln)” value by setting is: (30 °C) -1.12 ± 0.086; (37 °C) -0.205 ± 0.12.
Take AUAAAGCAAUAUUACGAUGG: the “self-splicing fitness (ln)” value (30 °C) is -2.15 ± 0.13 and the “self-splicing fitness (ln)” value (37 °C) was -1.03 ± 0.18.
For the sequence AUAAAGCAAUAUUACGAUUA, the “self-splicing fitness (ln)” value reads like this: (30 °C) -0.144 ± 0.073; (37 °C) 0.683 ± 0.095.
For AUAAAGCAAUAUUACGCAAG, the “self-splicing fitness (ln)” value was -1.19 ± 0.12 (30 °C) and -0.742 ± 0.14 (37 °C).
Regarding AUAAAGCAAUAUUACGCACC, the “self-splicing fitness (ln)” value reads like this: (30 °C) -0.896 ± 0.33; (37 °C) -1.02 ± 0.29.
Consider AUAAAGCAAUAUUACGCAGA, for which the “self-splicing fitness (ln)” value was -1.87 ± 0.093 (30 °C) and -0.796 ± 0.11 (37 °C).
For AUAAAGCAAUAUUACGCCCU, the “self-splicing fitness (ln)” value worked out at 0.347 ± 0.15 (30 °C) and 0.95 ± 0.18 (37 °C).
With AUAAAGCAAUAUUACGCGAC, the “self-splicing fitness (ln)” value runs as follows: (30 °C) -1.4 ± 0.13; (37 °C) -0.298 ± 0.13.
AUAAAGCAAUAUUACGCUCG: the “self-splicing fitness (ln)” value is, setting by setting: (30 °C) 0.147 ± 0.1; (37 °C) 0.699 ± 0.13.
For AUAAAGCAAUAUUACGCUCU, the “self-splicing fitness (ln)” value came out at 0.0815 ± 0.089 (30 °C) and 0.0503 ± 0.1 (37 °C).
The like results for AUAAAGCAAUAUUACGGACC were, in that order, -0.681 ± 0.16 and -0.941 ± 0.24.
The like results for AUAAAGCAAUAUUACGGAGG were, in that order, -3.18 ± 0.18 and -1.67 ± 0.24.
In the case of AUAAAGCAAUAUUACGGCAU, the “self-splicing fitness (ln)” value was 0.53 ± 0.098 (30 °C) and -0.0243 ± 0.11 (37 °C).
Consider AUAAAGCAAUAUUACGGCCC, for which the “self-splicing fitness (ln)” value (30 °C) was determined as 0.659 ± 0.39 and the “self-splicing fitness (ln)” value (37 °C) was 0.503 ± 0.43.
With AUAAAGCAAUAUUACGGCCG, the “self-splicing fitness (ln)” value was -0.128 ± 0.1 (30 °C) and 0.3 ± 0.16 (37 °C).
Turning to AUAAAGCAAUAUUACGGCUU, the “self-splicing fitness (ln)” value is -0.708 ± 0.1 (30 °C) and -0.569 ± 0.12 (37 °C).
AUAAAGCAAUAUUACGGGCA: the “self-splicing fitness (ln)” value was -0.434 ± 0.077 (30 °C) and -0.368 ± 0.08 (37 °C).
Take AUAAAGCAAUAUUACGGGGG: the “self-splicing fitness (ln)” value is, setting by setting: (30 °C) -2.77 ± 0.28; (37 °C) -2.66 ± 0.28.
As to AUAAAGCAAUAUUACGGUAG, the “self-splicing fitness (ln)” value (30 °C) was -2.82 ± 0.1 and the “self-splicing fitness (ln)” value (37 °C) is -1.74 ± 0.12.
Turning to AUAAAGCAAUAUUACGGUGA, the “self-splicing fitness (ln)” value reads like this: (30 °C) -0.436 ± 0.09; (37 °C) -0.422 ± 0.11.
In the same order, the values of AUAAAGCAAUAUUACGUCGU are -0.554 ± 0.046 and 0.314 ± 0.064.
Take AUAAAGCAAUAUUACGUGAC: the “self-splicing fitness (ln)” value is -2.94 ± 0.19 (30 °C) and -1.57 ± 0.18 (37 °C).
Consider AUAAAGCAAUAUUACGUGAG, for which the “self-splicing fitness (ln)” value runs as follows: (30 °C) -1.27 ± 0.076; (37 °C) -1.07 ± 0.12.
Take AUAAAGCAAUAUUACGUGCU: the “self-splicing fitness (ln)” value was -1.29 ± 0.08 (30 °C) and -0.736 ± 0.11 (37 °C).
